For 14 sequences, protein production results are on record in a protein production outcome set (Wang et al. 2014).

The data set in a line: label from the status in PepcDB records.
“MVKLGCSFSGKPGKEAGDQDGAAMDSVPLISPLDVSQLQPSFSDQVVINTQTEYQLTSADQPKKFADLEGQRLACSHSEEGRRLPTARMIAFAMALLGCVLIMYKAIWYDQFTCPDGFLLRHKICTPLTLEMYYTEMDPERHRSILAAIGAYPLSRKHGTEMPAVWGNNYRTAKEEHKGTTPAAMAVSTAAAAAAAEGTEPSGKSLDTREKEDPQKAEGVPSQPPK”: the protein production result is reported as “failed”. Under “MVKNGRDPPERNFYCTEKEETAPPLMNIFDDFKSQIEREIMTIFLKTAYESLLSIAISTEIIVPEDETRSLEKEVIKLMKLMKLMNLLEPLGNRVSRLMGLVRNAEEHRERIVKRNQESDVREIFKIAASRTKTRFHKALQKESSSSSMKWGFTEAKDEVLSLGIRLTHALIKLTLLRVKKNDREKQLLLRDWIFDESYEKQSALMYLLDYLLYKAEEFAASVVVEESGNDHHRQHILEEDRIGDDILTRISEAIFILQLLAMNLSRNVLTERDLIATNDQLLRCVRDVKFVESTIVVLMKGRSLKLKHKGKQSLLMKERTETIFWAKVNAELNKCWGESFWKYVEAARHLEAVVSSQQIVYTLCKLFVFGFES” stands “failed”.

Consider “MVKQGVFMKTDQSKVKKLSDYKSLDYFVIHVDLQIDLSKKPVESKARLTVVPNLNVDSHSNDLVLDGENMTLVSLQMNDNLLKENEYELTKDSLIIKNIPQNTPFTIEMTSLLGENTDLFGLYETEGVALVKAESEGLRRVFYLPDRPDNLATYKTTIIANQEDYPVLLSNGVLIEKKELPLGLHSVTWLDDVPKPSYLFALVAGNLQRSVTYYQTKSGRELPIEFYVPPSATSKCDFAKEVLKEAMAWDERTFNLECALRQHMVAGVDKYASGASEPTGLNLFNTENLFASPETKTDLGILRVLEVVAHEFFHYWSGDRVTIRDWFNLPLKEGLTTFRAAMFREELFGTDLIRLLDGKNLDERAPRQSAYTAVRSLYTAAAYEKSADIFRMMMLFIGKEPFIEAVAKFFKDNDGGAVTLEDFIESISNSSGKDLRSFLSWFTESGIPELIVTDELNPDTKQYFLKIKTVNGRNRPIPILMGLLDSSGAEIVADKLLIVDQEEIEFQFENIQTRPIPSLLRSFSAPVHMKYEYSYQDLLLLMQFDTNLYNRCEAAKQLISALINDFCIGKKIELSPQFFAVYKALLSDNSLNEWMLAELITLPSLEELIENQDKPDFEKLNEGRQLIQNALANELKTDFYNLLFRIQISGDDDKQKLKGFDLKQAGLRRLKSVCFSYLLNVDFEKTKEKLILQFEDALGKNMTETALALSMLCEINCEEADVALEDYYHYWKNDPGAVNNWFSIQALAHSPDVIERVKKLMRHGDFDLSNPNKVYALLGSFIKNPFGFHSVTGEGYQLVADAIFDLDKINPTLAANLTEKFTYWDKYDVNRQAMMISTLKIIYSNATSSDVRTMAKKGLDKVKEDLPLPIHLTFHGGSTMQDRTAQLIADGNKENAYQLH”, for which the protein production entry is “failed”. Under “MVKRANTFAMRPLTADDEQVLRDLLDASAALWNEINYQRLMRYNDKDGFEDEDVWDADTGALEGKYKAVLGASTAQTVRRANTEAWRSFFRLKKQFHDESNTSVTEHPEPPGFRGNKDDGRVLKGVVRKDAYSVEWGDRSRLEMVVGEQLRDRHNSPKSRLRLEIVGDPNWSDYEDQGRLELWYDETDCTFRASQPVTVSDDARATPLANEKAALDIGANNLVACTTTTGQQYLYEGRELFQRFRETTREIARLQSKLPEGRYSSKRIRRLYRKRTRRRDHAQETLCRDLLEQLYGEGVDTVYIGGLTDVLETHWSAETNAKTHNFWAFKQFTERLAWTADEYGISVEVRSEAWTSQECPQCGSTDRTTRQQDTLTCPCGFEGHADVTASETFLERHTEKAVRPMARPVRFEWDDHEWSESPRSPARESPKEQRTDPSTVPRDGNVVSGDSLEHHHHHH” stands “failed”; under “MVKSDIIIVKNFHGVFCLNLVNEIFENKYKIIDILGKGGMSTVYLAKDIKLQKFWAIKEVSNNINDTSKLKVDLLAETNILKKLDHPALPRIVDIIKRDESLYIVMDFIDGVSLDKFIHKNGAINEKVVLDWAKQICDVLSYLHSQKPNPIIYRDMKPGNLMLTQNGKIKLIDFGIAREYKKEVSKDTTYIGTRGYAAPEQYGDCQSDARTDIYSFGVTLYHMLTGKGPNDPPFELKPVRELNSSLSEGIEHIIEKSTRQDPSLRYQNVDEMLYDIKNIHKLNSKYKKQLVKKYIKVAASACLFIFSVFLIISGVLGIKSDSANEYNNIIENGSKQNGDKAVEYFKQAVDKNSSNPKAYIKIIDTYLENGEYDQSIDFIETNLNNKQSELLKDNELLFKIGMAYFDDESYAKAYQYFNKIKGADISISEPLKYYKPVANALSKVDLQNKDKIVSSITQLEKYIDSRSDVDYKVESYITLAELYRDNPQIFPQNTDKEIGVLEKASSVSANKNNAILYGQLGQAYFDKASESKIEQDKYNFYLNKALDSYKNSIQMGSKISNTYCKLGLIYKYLGNTAESKNTFQKETQLFSDDYKGYMEMALLEYDSQQSAAPETRNYSEFVKYYNSTVSKKYNENDVDFMTLKQEYNDLKNQGVIK”, “failed”. The entry for “MVKSFPKGKHRQRIRLWLGSLVLAALLVGGGLFSWYHWRSPSLKPLYTLTVEAPPQTLPELEQWAQSADLLKRDRARYLLAVESLSQRQPQVALQWLQNLEQTYRPMAAPILLLRAEAYRQQGDSRRAQETWEQLLRDYGSEPEAAIALLSLNQPQRAIARFPQHPAVVHYVAQQLEKNPDQVPYLKLVARYGLFLQGYGTYLEILRQRYADQLTPADWEAIAFGYWEKMQYAPAAEAYAKARPTPLNLYRVGRGRQLSGERTGAIAAYQALIQRFPNSSEAALAQLRLARLAKTAAERLPLLAKCLQLATENQAPAIAADALLEQYQAYRELGNTKGAQQSQQQLFKTYPQSSAAAELRWQLAQGAAQKRQWSQAQQWVREILKFNPESELAARAAFWQGKWQGEAGQPQAQRQTWQLVTERYPHTYYAWRAASLLQKPVGTFTTLRQQRPSVAGDRQPLLPLATGSPTLQELYLLRQFQEAWQRWQWEFQNRVTPTAAEQLTDGLIRLGVGEYLDGIFMLQNLFTRAAREPQVATFFAPIRRDLRFWYALYPLPYWELVKKWSLAHNLNPLLVMALIRQESRFEKDIRSVVGATGLMQLMPETAAWIAQQLNLEDYSLVDPEHNIRLGTWYFDYTHNQYNQNTLLALASYNAGPGNVSQWLERFDIGDSDRFVESIPFPETYGYVKSVLENYWNYWQLYAQP” is “failed”. The entry for “MVKTRAQRIKRMSVVDALCIRSQISVKSARYCKTVSKHLAKLQLAESGKNSSLVVCPSMGKTMKLYSMDAKRCKLSLLSTIDPSQRTPEVFMYMISSYNGIICCVNMIYDEDVENKFCDLQIWICNPITKETLLLPQGTPSFEFEPSIGVAYGSDVSDYKVYRIFCTGKIIPEERGPAEGFYVQEGRFFTKYGHSLAYECEVYSSSTGSWKNIGTVPCLPMSCSLRPYRRTGHIFVGGKVYWLVSLDAPGKILSVDLEGKFEVINLPAYADGLREDEQITEASHLINLKGSLGLLVLHPENMDVWVWKHDGERYSWVFQFKDVVPIKDDELILAVTALDNKIICVNETHWRIYDMETEKWKRRKSPRTGFRNPVVLPFTESVLPCNGGVKQ” is “failed”; for “MVKVSIIIPIYNVENYLDKCLDTAVNQTLGCIEIIGIDDGSTDKSRDILNKYAKKYSFIKIINKENGGLSSARNTGIINAKGEYIYFLDSDDYIEYDSMKICYEIATKNKLDIVSFDAESFVDGEGFTKKLKKYDRKDILDGNIKMGCEYFCELIKNKCYTASACLNFYRREFLIDNNLFFYDGILHEDELYTVKAYTLANKVRYIPYKLYFRRLRSNSITTQSISEKHLYGRLIAARESYRHYLGYKDVFDNDTNTCLLNHISNMYYFMLKDIYENKRIYNKRYIIEDKIINDIKSKKDIKSFKLDLQYRFPLIIYTIKKYLKKD” it is “failed”. As for “MVLAGGVGKRLLPLTRERPKPYLPLAGKPLYMYAVEQVAMVRSLLDRAVMVTPPGHPTPPGSLPSWLDTVEQQGEGVEAGLATALKRLGGGEEVVVSFVGYLARPNTLVRHVLDFYSVTRYKLVLALAPVTRGSESFGFVDADPSTGRVLGFSGSREEWMAGRGRVFAGVLAGDPEALEVLAGEGFVEGINTLARRGLVGSVVWPGEWLEVGYPCDLLEAPRLVVEAWAAVISAKARVARSSVIQGGVVIEEDAEVGEGAVVEGPAYLGRGAVVGRNSVVGPGVVLEEGAVVGDLVSIERSVMLERAEASGPSRLEGVVIGDGAYIAPLAAATNREGCTVVAPKTRLGPRATLEPGKTYTLEHHHHHH”, the protein production entry was “failed”.

For the sequence “MVLEIGLPPLHVGFIMAYSLLAASLSIFLGLALAEFDVVAHAVLAGYYAGLFFPMSVYTNFFTAAASGAPRPAKEYLPLLLAFILAAVAPLHGSTSTLATLFLLSQAFLLYYMALQAGRFRRDALARFSALAPPISGTGASLILLSSSQLGFLDALMSLTLAFSTPVPLLMAPMAIGASIYGLGPARGKEAIIRLSPALTAIPASILSVLTLSINPYLLPLSLYLVVMRPWRIVSELISVRRPKPPQLYLLSVHAATLAAIVSSLILASNSNIVEAGHAIMIGVIAPHALLHSIVRGGEIPFTRRPRSWTPIPPLLLAASTPLRFASKEASLALALLALSIHVASILDPHPRNIIPRAFRVEGGKQQSATTGG”, the protein production result was “failed”. The entry for “MVLIYCYKYFHEFMEAFDRIQKNIMEAHMKKVIGAATATVFGLGAFTTTATAETIVTADVLNVREKPTTESKVVEKVKNGQELKVINTEDGWSKIELNGKEVFVSSEFTKDIYHVTANLLNVRTEANTESKILGRLKKDDVIESTNQVKDGWLQFEYKGKTAYVNVSFLSSTAPVEKKADEKTKQVAKVQKMVKAKEEAKTQKVTKAKETIKPKEEEKVQEVVKPKEEEKVQEVVKPKEEEKVQEVVKPKEEEKIQEVAKPKEEAKVQEVAKPKEEEKVQEVAKPKEEEKVQEVVKPKEEEKVQEVAKSKEEAKVQEVAKPKEEAKVQEVVKPKEEAKVQEEAKAQEIAKAKEEAKAQEIAKAKEEEKAREIAKAKEEAKAQEIAKAKEEAKAQEIAKAKEEAKAQEIAKAKEEEKAREIAKAKEEAKAQEIAKAKEEAKAREIAKAKEEAKAREAIKAKEESKNNTQSAKRELTVVATAYTADPSENGTYGGRVLTAMGHDLTANPNMRIIAVDPKVIPLGSKVWVEGYGEAIAGDTGSAIKGNRIDVLMGSKSKAMDWGRQTVKVKIL” is “failed”; for “MVLKGDAKRIVAMSSTHIAMLDAIGEVRCITGVSGIDYISNPDIQARRDSIGDVGYEGNINYELLLSLDPDLVLLYGVNGASAMESKLEELDIPFMYVGDYLEESPLGKAEWMVVLSEVTGKREKGEKAFAAIPVRYNALKKKVADSTLGLEHHHHHH” it is “not failed”. The entry for “MVLLLRYRSLTINLTPLIPKSQKFHTLQSFRNPNFISIPKISASTNNPTTTTNRSISDATKFAKSVLFIPPGVEIEELTDDMVLPGSNIVIGPFAGHSQIKEVEFVKSSARARDCPKDDRPEIAILGRSNVGKSSLINCLVRKKEVALTSKKPGKTQLINHFLVNKSWYIVDLPGYGFAKVSDAAKTDWSAFTKGYFLNRDSLVCVLLLIDASVPPQKIDLDCANWLGRNNVPMTFVFTKCDKMKATKGKRPDENIKAFQQIIRENFKVHPPWILTSSVSGLGRDELLLHMSQLRNYWDQ” is “failed”.

“MVLSEIFRGNNEVREAARAGVQIDTVSVASASDAASAADGSGKITGAIRPSAVAGSFYPADRTALKQLINQQLDYGRKLLQQLEPTLPAGVPRAVIVPHAGYIYSGTAAALAYALLERGRGSVTRAVIVGPTHRVAVRGVACSTAAAFETPLGTVPVDIAAERKALGLSVNEPLRSGTHARPGAPAPAMIVNAPTHAQEHAVEVQIPFLQTVLGPDLTIVPLNAGDATPQEVGDVLRALWGGPETVIVISSDLSHYHPHEVARALDDQTIADIAALHLPIHPRRACGAYPINGLLDVLKGRKDMRLFELGCSTSGDDGVVALAGQPRPAMRDADEPVVGYVSFAAWESKPEADALAGADDLGTSGTPSHGEVLLKLARAAIRERLHIEHPTAADSTASILAANPWLNEPGACFVTLTEGGRLRGCIGSLVAHRSLGKDVAEHAVDAATRDPRFTPVTAAEYPLLNVEVSVLGEPEPITVNSCDADSRGTGSKTATLASLQSGPQTDAVKRDGSNVERPVRSRTELEEVLRPGKDGLILADRRGRSATFLPQVWDELPDPHDFVAHLLAKAGIRPSYDWTDSEIDCQRYEVTAYAEH”: the protein production result is “failed”.
